In US20240279281A1, “Peptide Inhibitors of Interleukin-23 Receptor” (Janssen Pharmaceutica NV, priority 2023, published 2024):
Starred links: 1 amine or outer side, 2 acyl side, 3 side chain; linkers in the order of their positions; H or OH if unused. Positions of bridges follow the written chain, without caps; N, C: chain ends. Non-standard residues stand in square brackets, D forms with d. No end group written: not given here. X1 = 3‑(7-(3-acetamidophenyl)-1H-indol-3-yl)‑2‑aminopropanoic acid, CC(=O)Nc1cccc(-c2cccc3c(CC(N[*:1])C(=O)[*:2])c[nH]c23)c1; X10 = 2‑amino‑3‑(4-(2-guanidinoethoxy)phenyl)propanoic acid, N=C(N)NCCOc1ccc(CC(N[*:1])C(=O)[*:2])cc1; X7 = 2‑amino‑3‑(5-methylpyridin-3-yl)propanoic acid, Cc1cncc(CC(N[*:1])C(=O)[*:2])c1; 2Nal(6-OH) = N[C@@H](Cc1ccc2cc(O)ccc2c1)C(=O)O; Trp(7-Me) = Cc1cccc2c(C[C@H](N)C(=O)O)c[nH]c12; d(hLys(Me3)) = C[N+](C)(C)CCCCC[C@@H](N)C(=O)O; AEF = NCCOc1ccc(C[C@H](N)C(=O)O)cc1; 3Pal = N[C@@H](Cc1cccnc1)C(=O)O; Lipidated = not defined here; NMeK = CN[C@@H](CCCCN)C(=O)O; Pen = CC(C)(S)[C@H](N)C(=O)O; αMeC = C[C@](N)(CS)C(=O)O; lipid = not defined here; Thp = NC1(C(=O)O)CCOCC1; Abu = CC[C@H](N)C(=O)O; PEG = not defined here; Ava = NCCCCC(=O)O; Sar = CNCC(=O)O

T1: interleukin-23 receptor (IL-23R), Q5VWK5
T1 chain: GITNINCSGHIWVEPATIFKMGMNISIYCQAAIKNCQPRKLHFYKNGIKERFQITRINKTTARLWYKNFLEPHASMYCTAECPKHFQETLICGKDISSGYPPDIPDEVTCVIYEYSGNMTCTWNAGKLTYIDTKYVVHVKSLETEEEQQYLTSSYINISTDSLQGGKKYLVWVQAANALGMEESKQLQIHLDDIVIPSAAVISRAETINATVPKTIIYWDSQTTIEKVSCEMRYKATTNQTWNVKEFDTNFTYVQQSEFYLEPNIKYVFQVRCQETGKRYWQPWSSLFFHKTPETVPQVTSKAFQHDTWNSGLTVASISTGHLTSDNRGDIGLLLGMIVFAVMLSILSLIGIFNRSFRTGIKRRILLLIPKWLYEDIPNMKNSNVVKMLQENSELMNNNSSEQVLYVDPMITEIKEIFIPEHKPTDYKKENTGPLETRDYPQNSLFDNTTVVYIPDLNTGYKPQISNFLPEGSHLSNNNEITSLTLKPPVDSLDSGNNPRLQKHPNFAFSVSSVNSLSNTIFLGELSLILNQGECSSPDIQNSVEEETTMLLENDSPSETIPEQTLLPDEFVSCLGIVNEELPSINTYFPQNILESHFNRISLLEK


Biological target: T1, interleukin-23 receptor (IL-23R), Q5VWK5
Assay: cell-based or functional assay

IL23R Reporter Assay IC50	PBMC pSTAT3 IC50	Binder
< 10 nM	< 10 pM	[Ava][Abu]NT[Trp(7-Me)]K(Ac)C[2‑amino‑3‑(4-(2-aminoethoxy)phenyl)propanoic acid][2‑amino‑3‑(6-hydroxynaphthalen-2-yl)propanoic acid][Thp]EN[3Pal][Sar] (ends and bridges not checked) [SEQ ID NO: 171]
> 100 nM	< 1 nM	[Pen]NT[Trp(7-Me)]K(Lipidated)[Pen][2‑amino‑3‑(4-(2-aminoethoxy)phenyl)propanoic acid][2‑amino‑3‑(6-hydroxynaphthalen-2-yl)propanoic acid][Thp]K(PEG)N[3Pal][Sar] (disulfide 1-6 (inferred); ends not checked; also: lipid structure not given here, PEG size not given here) [SEQ ID NO: 200]
> 100 nM	< 1 nM	[(R)‑3‑carboxy‑2‑(4-(((R)-5-carboxy-5-hydrazineylpentyl)amino)-4-oxobutanamido)‑N,N,N‑trimethylpropan‑1‑aminium][Pen]NT[Trp(7-Me)]K(Ac)[Pen][2‑amino‑3‑(4-(2-aminoethoxy)phenyl)propanoic acid][2‑amino‑3‑(6-hydroxynaphthalen-2-yl)propanoic acid][Thp]EN[3Pal][NMeK](lipid) (disulfide 2-7 (inferred); ends not checked; also: X14: lipidated N-methyl-lysine, lipid and methyl place not given here) [SEQ ID NO: 167]
> 100 nM	< 1 nM	[Pen]NT[Trp(7-Me)]K(Lipidated)[Pen][2‑amino‑3‑(4-(2-aminoethoxy)phenyl)propanoic acid][2‑amino‑3‑(6-hydroxynaphthalen-2-yl)propanoic acid][Thp]K(Ac)N[3Pal][Sar] (disulfide 1-6 (inferred); ends not checked; also: K5 lipidated lysine, lipid not given here) [SEQ ID NO: 189]
< 10 nM	< 10 pM	[Pen]NT[X1]K(Ac)[Pen][5‑(4-(2-amino-2-carboxyethyl)phenoxy)‑N,N,N‑trimethylpentan‑1‑aminium][2‑amino‑3‑(6-hydroxynaphthalen-2-yl)propanoic acid][Thp]EN[X7][Sar] (ends and bridges not checked) [SEQ ID NO: 22]
> 100 nM	< 1 nM	[(R)‑3‑carboxy‑2‑(4-(((R)-5-carboxy-5-hydrazineylpentyl)amino)-4-oxobutanamido)‑N,N,N‑trimethylpropan‑1‑aminium][Pen]NT[Trp(7-Me)]K(Ac)[Pen][2‑amino‑3‑(4-(2-aminoethoxy)phenyl)propanoic acid][2‑amino‑3‑(6-hydroxynaphthalen-2-yl)propanoic acid][Thp]EN[3Pal][NMeK](lipid) (disulfide 2-7 (inferred); not fully specified; ends not checked) [SEQ ID NO: 168]
< 10 nM	< 10 pM	[Ava][Abu]NTWQC[2‑amino‑3‑(4-(2-aminoethoxy)phenyl)propanoic acid][2‑amino‑3‑(6-hydroxynaphthalen-2-yl)propanoic acid][Thp]EN[3Pal][Sar] (ends and bridges not checked) [SEQ ID NO: 172]
> 100 nM	< 1 nM	[d(hLys(Me3))][Pen]NT[Trp(7-Me)]K(Lipidated)[Pen][2‑amino‑3‑(4-(2-aminoethoxy)phenyl)propanoic acid][2‑amino‑3‑(6-hydroxynaphthalen-2-yl)propanoic acid][Thp]K(Ac)N[3Pal][Sar] (disulfide 2-7 (inferred); ends not checked; also: K6 lipidated lysine, lipid not given here) [SEQ ID NO: 187]
> 100 nM	> 1 nM	[Pen]NT[Trp(7-Me)]K(lipid)[Pen][2‑amino‑3‑(4-(2-aminoethoxy)phenyl)propanoic acid][2‑amino‑3‑(6-hydroxynaphthalen-2-yl)propanoic acid][Thp]K(Ac)N[3Pal][Sar] (disulfide 1-6 (inferred); ends not checked; also: K5 lipidated, lipid not given here) [SEQ ID NO: 178]
< 10 nM	< 0.1 nM	[Pen]NT[Trp(7-Me)]K(Ac)[Pen][X10][2Nal(6-OH)][Thp]EN[3Pal][Sar] (ends and bridges not checked) [SEQ ID NO: 24]
> 100 nM	< 1 nM	[Pen]NT[Trp(7-Me)]K(Lipidated)[Pen][2‑amino‑3‑(4-(2-aminoethoxy)phenyl)propanoic acid][2‑amino‑3‑(6-hydroxynaphthalen-2-yl)propanoic acid][Thp]K(Ac)N[3Pal][Sar] (disulfide 1-6 (inferred); ends not checked; also: K5 lipidated lysine, lipid not given here) [SEQ ID NO: 188]
< 10 nM		R[Abu]NTWK(Ac)[αMeC][AEF][2Nal(6-OH)][Thp]K(Ac)N[3Pal][Sar] (ends and bridges not checked) [SEQ ID NO: 28]
> 100 nM	< 1 nM	[Pen]NT[Trp(7-Me)]K(lipid)[Pen][5‑(4-(2-amino-2-carboxyethyl)phenoxy)‑N,N,N‑trimethylpentan‑1‑aminium][2‑amino‑3‑(6-hydroxynaphthalen-2-yl)propanoic acid][Thp]K(Ac)N[3Pal][Sar] (disulfide 1-6 (inferred); ends not checked; also: K5 lipidated lysine, lipid not given here) [SEQ ID NO: 183]
> 100 nM	> 1 nM	[Pen]NT[Trp(7-Me)]K(Ac)[Pen][2‑amino‑3‑(4-(2-aminoethoxy)phenyl)propanoic acid][2‑amino‑3‑(6-hydroxynaphthalen-2-yl)propanoic acid][Thp]K(lipid)N[3Pal][Sar] (disulfide 1-6 (inferred); ends not checked; also: K10 lipidated, lipid not given here) [SEQ ID NO: 177]
< 10 nM	< 10 pM	R[Pen]ET[X1]K(Ac)[Pen][2‑amino‑3‑(4-(2-aminoethoxy)phenyl)propanoic acid][2‑amino‑3‑(6-hydroxynaphthalen-2-yl)propanoic acid][Thp]EN[3Pal][Sar] (disulfide 2-7 (inferred); ends not checked) [SEQ ID NO: 158]
